We go through 18 molecules from US20200002436A1 (DRAGONFLY THERAPEUTICS, published 2020).

What all share (assay): ELISA on coated NKG2D-Fc;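 further: titrated NKG2D binders added to plates coated with human, mouse or cynomolgus NKG2D ectodomain–human IgG1 Fc fusions, detected by HRP anti-human kappa antibody with TMB, absorbance at 450 nm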
On the technique in general: In an ELISA, binding on a coated surface is turned into a signal by an enzyme label.

The target of assay [1] is T1, cynomolgus recombinant NKG2D-Fc (cynomolgus; human, UniProt P61252 73-216).
T1 construct: extracellular domain; also called cynomolgus NKG2D-Fc; not shown: human IgG1 Fc domain
T1 sequence (looked up): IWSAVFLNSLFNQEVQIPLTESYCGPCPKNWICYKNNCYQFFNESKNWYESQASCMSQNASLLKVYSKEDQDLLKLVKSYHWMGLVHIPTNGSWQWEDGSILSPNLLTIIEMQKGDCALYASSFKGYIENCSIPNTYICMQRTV

Assay [2] has as its target T2, human recombinant NKG2D-Fc (human, UniProt P26718 73-216).
T2 construct: extracellular domain; also called recombinant human NKG2D-Fc; NKG2D-Fc fusion protein; not shown: human IgG1 Fc domain
T2 sequence (looked up): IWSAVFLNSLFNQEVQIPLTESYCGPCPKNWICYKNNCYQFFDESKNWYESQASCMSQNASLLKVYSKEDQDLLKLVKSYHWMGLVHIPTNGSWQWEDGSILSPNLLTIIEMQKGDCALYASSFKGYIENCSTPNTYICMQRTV

Assay [3] has as its target T3, mouse recombinant NKG2D-Fc (mouse; human, UniProt O54709 90-232).
T3 construct: extracellular domain; also called recombinant mouse NKG2D-Fc; Mouse NKG2D-Fc-biotin; not shown: human IgG1 Fc domain
T3 sequence (looked up): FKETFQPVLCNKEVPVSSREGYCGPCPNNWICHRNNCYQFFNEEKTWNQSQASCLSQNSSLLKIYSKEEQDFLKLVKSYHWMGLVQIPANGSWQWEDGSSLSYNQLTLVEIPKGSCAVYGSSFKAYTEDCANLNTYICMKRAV

B1: ADI-27727 (antibody, V domains shown)
VH: QVQLVQSGAEVKKPGSSVKVSCKASGGTFSSYAISWVRQAPGQGLEWMGGIIPIFGTANYAQKFQGRVTITADESTSTAYMELSSLRSEDTAVYYCARGDSSIRHAYYYYGMDVWGQGTTVTVSS
VL: not shown
For B1, the binding result in assay [1], in assay [2] and in assay [3] was “binds” throughout.

B2: ADI-29443 (antibody, V domains shown)
VH: QLQLQESGPGLVKPSETLSLTCTVSGGSISSSSYYWGWIRQPPGKGLEWIGSIYYSGSTYYNPSLKSRVTISVDTSKNQFSLKLSSVTAADTAVYYCARGSDRFHPYFDYWGQGTLVTVSS
VL: EIVLTQSPATLSLSPGERATLSCRASQSVSRYLAWYQQKPGQAPRLLIYDASNRATGIPARFSGSGSGTDFTLTISSLEPEDFAVYYCQQFDTWPPTFGGGTKVEIK
notes: also called F43
Turning to B2, the binding result in assay [2] and in assay [3] was “binds” each time.

B3: ADI-27705 (antibody, V domains shown)
VH: QVQLQQWGAGLLKPSETLSLTCAVYGGSFSGYYWSWIRQPPGKGLEWIGEIDHSGSTNYNPSLKSRVTISVDTSKNQFSLKLSSVTAADTAVYYCARARGPWSFDPWGQGTLVTVSS
VL: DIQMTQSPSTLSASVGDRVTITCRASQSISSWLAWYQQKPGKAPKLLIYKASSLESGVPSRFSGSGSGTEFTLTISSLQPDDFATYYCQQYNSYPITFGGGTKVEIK
With B3, the binding result in assay [1], in assay [2] and in assay [3] was “binds” in each case.

B4: ADI-29403 (antibody, V domains shown)
VH: QVQLQQWGAGLLKPSETLSLTCAVYGGSFSGYYWSWIRQPPGKGLEWIGEIDHSGSTNYNPSLKSRVTISVDTSKNQFSLKLSSVTAADTAVYYCARARGPWSFDPWGQGTLVTVSS
VL: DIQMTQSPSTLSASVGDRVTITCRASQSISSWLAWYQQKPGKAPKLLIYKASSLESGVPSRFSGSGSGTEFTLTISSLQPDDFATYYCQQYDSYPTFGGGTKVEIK
For the molecule B4, the binding result in assay [1], in assay [2] and in assay [3] was “binds” each time.

B5: ADI-29404 (antibody, V domains shown)
VH: QVQLQQWGAGLLKPSETLSLTCAVYGGSFSGYYWSWIRQPPGKGLEWIGEIDHSGSTNYNPSLKSRVTISVDTSKNQFSLKLSSVTAADTAVYYCARARGPWSFDPWGQGTLVTVSS
VL: DIQMTQSPSTLSASVGDRVTITCRASQSISSWLAWYQQKPGKAPKLLIYKASSLESGVPSRFSGSGSGTEFTLTISSLQPDDFATYYCEQYDSYPTFGGGTKVEIK
notes: also called F04
Turning to B5, the binding result in assay [1], in assay [2] and in assay [3] was “binds” in each case.

B6: ADI-29419 (antibody, V domains shown)
VH: QVQLQQWGAGLLKPSETLSLTCAVYGGSFSGYYWSWIRQPPGKGLEWIGEIDHSGSTNYNPSLKSRVTISVDTSKNQFSLKLSSVTAADTAVYYCARARGPWSFDPWGQGTLVTVSS
VL: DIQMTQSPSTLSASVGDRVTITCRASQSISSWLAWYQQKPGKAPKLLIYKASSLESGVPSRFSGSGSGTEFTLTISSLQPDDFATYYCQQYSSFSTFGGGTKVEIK
In the case of B6, the binding result in assay [1], in assay [2] and in assay [3] was “binds” in each case.

B7: ADI-29401 (antibody, V domains shown)
VH: QVQLQQWGAGLLKPSETLSLTCAVYGGSFSGYYWSWIRQPPGKGLEWIGEIDHSGSTNYNPSLKSRVTISVDTSKNQFSLKLSSVTAADTAVYYCARARGPWSFDPWGQGTLVTVSS
VL: DIQMTQSPSTLSASVGDRVTITCRASQSIGSWLAWYQQKPGKAPKLLIYKASSLESGVPSRFSGSGSGTEFTLTISSLQPDDFATYYCQQYDIYPTFGGGTKVEIK
For B7, the binding result in assay [1], in assay [2] and in assay [3] was “binds” in each case.

B8: ADI-29425 (antibody, V domains shown)
VH: QVQLQQWGAGLLKPSETLSLTCAVYGGSFSGYYWSWIRQPPGKGLEWIGEIDHSGSTNYNPSLKSRVTISVDTSKNQFSLKLSSVTAADTAVYYCARARGPWSFDPWGQGTLVTVSS
VL: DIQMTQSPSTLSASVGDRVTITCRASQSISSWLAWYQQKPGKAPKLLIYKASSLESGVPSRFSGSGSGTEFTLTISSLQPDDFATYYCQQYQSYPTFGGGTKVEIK
Regarding B8, the binding result in assay [1], in assay [2] and in assay [3] was “binds” each time.

B9: ADI-29399 (antibody, V domains shown)
VH: QVQLQQWGAGLLKPSETLSLTCAVYGGSFSGYYWSWIRQPPGKGLEWIGEIDHSGSTNYNPSLKSRVTISVDTSKNQFSLKLSSVTAADTAVYYCARARGPWSFDPWGQGTLVTVSS
VL: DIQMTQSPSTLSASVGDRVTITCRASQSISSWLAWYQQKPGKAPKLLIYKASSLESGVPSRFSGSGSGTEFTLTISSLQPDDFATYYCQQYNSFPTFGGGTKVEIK
For the molecule B9, the binding result in assay [1], in assay [2] and in assay [3] was “binds” in each case.

B10: ADI-29429 (antibody, V domains shown)
VH: QVQLQQWGAGLLKPSETLSLTCAVYGGSFSGYYWSWIRQPPGKGLEWIGEIDHSGSTNYNPSLKSRVTISVDTSKNQFSLKLSSVTAADTAVYYCARARGPWSFDPWGQGTLVTVSS
VL: DIQMTQSPSTLSASVGDRVTITCRASQSIGSWLAWYQQKPGKAPKLLIYKASSLESGVPSRFSGSGSGTEFTLTISSLQPDDFATYYCQQYELYSYTFGGGTKVEIK
Take B10: the binding result in assay [1], in assay [2] and in assay [3] was “binds” each time.

B11: ADI-27741 (antibody, V domains shown)
VH: QVQLQQWGAGLLKPSETLSLTCAVYGGSFSGYYWSWIRQPPGKGLEWIGEIDHSGSTNYNPSLKSRVTISVDTSKNQFSLKLSSVTAADTAVYYCARARGPWSFDPWGQGTLVTVSS
VL: DIQMTQSPSTLSASVGDRVTITCRASQSIGSWLAWYQQKPGKAPKLLIYKASSLESGVPSRFSGSGSGTEFTLTISSLQPDDFATYYCQQSNSYYTFGGGTKVEIK
Regarding B11, the binding result in assay [1], in assay [2] and in assay [3] was “binds” each time.

B12: ADI-27743 (antibody, V domains shown)
VH: QVQLQQWGAGLLKPSETLSLTCAVYGGSFSGYYWSWIRQPPGKGLEWIGEIDHSGSTNYNPSLKSRVTISVDTSKNQFSLKLSSVTAADTAVYYCARARGPWSFDPWGQGTLVTVSS
VL: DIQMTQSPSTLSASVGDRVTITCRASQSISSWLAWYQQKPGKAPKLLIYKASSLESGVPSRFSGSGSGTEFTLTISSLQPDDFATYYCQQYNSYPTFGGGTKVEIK
Take B12: the binding result in assay [1], in assay [2] and in assay [3] was “binds” throughout.

B13: ADI-29407 (antibody, V domains shown)
VH: QVQLQQWGAGLLKPSETLSLTCAVYGGSFSGYYWSWIRQPPGKGLEWIGEIDHSGSTNYNPSLKSRVTISVDTSKNQFSLKLSSVTAADTAVYYCARARGPWSFDPWGQGTLVTVSS
VL: DIQMTQSPSTLSASVGDRVTITCRASQSISSWLAWYQQKPGKAPKLLIYKASSLESGVPSRFSGSGSGTEFTLTISSLQPDDFATYYCQQYQSFPTFGGGTKVEIK
As to B13, the binding result in assay [1], in assay [2] and in assay [3] was “binds” in each case.

B14: ADI-29424 (antibody, V domains shown)
VH: QVQLQQWGAGLLKPSETLSLTCAVYGGSFSGYYWSWIRQPPGKGLEWIGEIDHSGSTNYNPSLKSRVTISVDTSKNQFSLKLSSVTAADTAVYYCARARGPWSFDPWGQGTLVTVSS
VL: DIQMTQSPSTLSASVGDRVTITCRASQSISSWLAWYQQKPGKAPKLLIYKASSLESGVPSRFSGSGSGTEFTLTISSLQPDDFATYYCQQYDSFITFGGGTKVEIK
Regarding B14, the binding result in assay [1], in assay [2] and in assay [3] was “binds” throughout.

B15: ADI-27740 (antibody, V domains shown)
VH: QVQLQQWGAGLLKPSETLSLTCAVYGGSFSGYYWSWIRQPPGKGLEWIGEIDHSGSTNYNPSLKSRVTISVDTSKNQFSLKLSSVTAADTAVYYCARARGPWSFDPWGQGTLVTVSS
VL: DIQMTQSPSTLSASVGDRVTITCRASQSIGSWLAWYQQKPGKAPKLLIYKASSLESGVPSRFSGSGSGTEFTLTISSLQPDDFATYYCQQYHSFYTFGGGTKVEIK
notes: also called A40
Take B15: the binding result in assay [1], in assay [2] and in assay [3] was “binds” throughout.

B16: ADI-29421 (antibody, V domains shown)
VH: QVQLQQWGAGLLKPSETLSLTCAVYGGSFSGYYWSWIRQPPGKGLEWIGEIDHSGSTNYNPSLKSRVTISVDTSKNQFSLKLSSVTAADTAVYYCARARGPWSFDPWGQGTLVTVSS
VL: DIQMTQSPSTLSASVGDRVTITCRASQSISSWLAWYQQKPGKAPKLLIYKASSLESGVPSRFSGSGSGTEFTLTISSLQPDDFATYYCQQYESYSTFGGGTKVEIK
Consider B16, for which the binding result in assay [1], in assay [2] and in assay [3] was “binds” each time.

B17: ADI-28226 (antibody, V domains shown)
VH: QVQLQQWGAGLLKPSETLSLTCAVYGGSFSGYYWSWIRQPPGKGLEWIGEIDHSGSTNYNPSLKSRVTISVDTSKNQFSLKLSSVTAADTAVYYCARARGPWSFDPWGQGTLVTVSS
VL: DIQMTQSPSTLSASVGDRVTITCRASQSISSWLAWYQQKPGKAPKLLIYKASSLESGVPSRFSGSGSGTEFTLTISSLQPDDFATYYCQQYGSFPITFGGGTKVEIK
notes: also called C26
Consider B17, for which the binding result in assay [1], in assay [2] and in assay [3] was “binds” each time.

B18: ADI-29405 (antibody, V domains shown)
VH: QVQLQQWGAGLLKPSETLSLTCAVYGGSFSGYYWSWIRQPPGKGLEWIGEIDHSGSTNYNPSLKSRVTISVDTSKNQFSLKLSSVTAADTAVYYCARARGPWSFDPWGQGTLVTVSS
VL: DIQMTQSPSTLSASVGDRVTITCRASQSISSWLAWYQQKPGKAPKLLIYKASSLESGVPSRFSGSGSGTEFTLTISSLQPDDFATYYCQQYGSFPTFGGGTKVEIK
Turning to B18, the binding result in assay [1], in assay [2] and in assay [3] was “binds” each time.
